Measured values taken from publication doi:10.1101/2020.07.07.191163 (bioRxiv, 2020).

Target: the molecule itself
Test: native MS

B1: Bacillus subtilis pyruvate kinase PykA (enzyme, B. subtilis, UniProt P80885 1-585, looked up)
chain: MRKTKIVCTIGPASESIEMLTKLMESGMNVARLNFSHGDFEEHGARIKNIREASKKLGKNVGILLDTKGPEIRTHTMENGGIELETGKELIISMDEVVGTTDKISVTYEGLVHDVEQGSTILLDDGLIGLEVLDVDAAKREIKTKVLNNGTLKNKKGVNVPGVSVNLPGITEKDARDIVFGIEQGVDFIAPSFIRRSTDVLEIRELLEEHNAQDIQIIPKIENQEGVDNIDAILEVSDGLMVARGDLGVEIPAEEVPLVQKELIKKCNALGKPVITATQMLDSMQRNPRPTRAEASDVANAIFDGTDAIMLSGETAAGSYPVEAVQTMHNIASRSEEALNYKEILSKRRDQVGMTITDAIGQSVAHTAINLNAAAIVTPTESGHTARMIAKYRPQAPIVAVTVNDSISRKLALVSGVFAESGQNASSTDEMLEDAVQKSLNSGIVKHGDLIVITAGTVGESGTTNLMKVHTVGDIIAKGQGIGRKSAYGPVVVAQNAKEAEQKMTDGAVLVTKSTDRDMIASLEKASALITEEGGLTSHAAVVGLSLGIPVIVGLENATSILTDGQDITVDASRGAVYQGRASVL
stoichiometry N: 4
